Data reported in doi:10.64898/2025.12.26.696629.
Where a chain is given by its changes, count along the chain named. Like-named read-outs stand apart in the source and are kept apart here.

Tests used:
[1] = target: Mtb SufR_(6-229)-His6 (Mycobacterium tuberculosis H37Rv); assay: cryo-EM structure
SufR-R51A = target: T1, SufR-R51A (Mycobacterium tuberculosis H37Rv, UniProt O53151 30-253, R75A); assay: EMSA
T1 sequence: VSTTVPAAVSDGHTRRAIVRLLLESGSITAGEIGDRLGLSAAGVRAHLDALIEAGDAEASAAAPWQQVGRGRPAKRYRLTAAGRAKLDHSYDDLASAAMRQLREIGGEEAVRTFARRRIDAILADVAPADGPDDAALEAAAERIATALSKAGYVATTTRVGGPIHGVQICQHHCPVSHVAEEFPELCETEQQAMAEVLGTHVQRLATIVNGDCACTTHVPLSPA

SufR-M2 (AT-hook mutant) = target: T2, SufR-M2 (AT-hook mutant) (Mycobacterium tuberculosis H37Rv, UniProt O53151 30-253, R99A;R101A); assay: EMSA
T2 sequence: T1 sequence with A46R, R70A, R72A

SufR-R75M = target: T3, SufR-R75M (Mycobacterium tuberculosis H37Rv, UniProt O53151 30-253, R99M); assay: EMSA
T3 sequence: T1 sequence with A46R, R70M

[2] = target: T4, SufR-M1 (RRH motif mutant) (Mycobacterium tuberculosis H37Rv, UniProt O53151 30-253, R74A;R75A;H76A); assay: EMSA
T4 sequence: T1 sequence with R45A, H47A

[3] = target: T5, SufR6-229-His6 (holo, [4Fe-4S]) (Mycobacterium tuberculosis H37Rv, UniProt O53151 30-253); assay: EMSA
T5 sequence: T1 sequence with A46R

[4] = target: T5, SufR6-229-His6 (holo, [4Fe-4S]); assay: EMSA; remark: listed apart in the source

Mtb SufR_(6-229)-His6 (domain or fragment)
stoichiometry N [1]: 2

B1: PsufR 50-bp (dsDNA)
DNA 1: CCGATCAACGGAATTTTGTCACACTGATGTTGTGAAAATCCCGGCGGTCT
DNA 2: AGACCGCCGGGATTTTCACAACATCAGTGTGACAAAATTCCGTTGATCGG
binding result (SufR-R51A): no binding
binding result (SufR-M2 (AT-hook mutant)): no binding
binding result (SufR-R75M): binds
binding result [2]: no binding

B2: PsufR-DM (dsDNA)
DNA 1: B1 DNA 1 with T14C, T16G, A36C, A38G
DNA 2: B1 DNA 2 with T13C, T15G, A35C, A37G
binding result [3]: no binding

B3: PsufR-PM (dsDNA)
DNA 1: CCGATCAACGGAATTTTGTCGAAGTGATGTCACTAAAATCCCGGCGGTCT
DNA 2: AGACCGCCGGGATTTTAGTGACATCACTTCGACAAAATTCCGTTGATCGG
binding result [4]: binds
